We go through three molecules from PMC6473903, “Isoform-Specific NO Synthesis by Arabidopsis thaliana Nitrate Reductase” (Plants, 2019).

In data set [1] the target is T1, re-constituted (composite) NIA2 (Arabidopsis thaliana, UniProt P11035).
T1 construct: both from E. coli, IMAC purified; with Nitrate reductase [NADH]
T1 sequence (P11035 1-625): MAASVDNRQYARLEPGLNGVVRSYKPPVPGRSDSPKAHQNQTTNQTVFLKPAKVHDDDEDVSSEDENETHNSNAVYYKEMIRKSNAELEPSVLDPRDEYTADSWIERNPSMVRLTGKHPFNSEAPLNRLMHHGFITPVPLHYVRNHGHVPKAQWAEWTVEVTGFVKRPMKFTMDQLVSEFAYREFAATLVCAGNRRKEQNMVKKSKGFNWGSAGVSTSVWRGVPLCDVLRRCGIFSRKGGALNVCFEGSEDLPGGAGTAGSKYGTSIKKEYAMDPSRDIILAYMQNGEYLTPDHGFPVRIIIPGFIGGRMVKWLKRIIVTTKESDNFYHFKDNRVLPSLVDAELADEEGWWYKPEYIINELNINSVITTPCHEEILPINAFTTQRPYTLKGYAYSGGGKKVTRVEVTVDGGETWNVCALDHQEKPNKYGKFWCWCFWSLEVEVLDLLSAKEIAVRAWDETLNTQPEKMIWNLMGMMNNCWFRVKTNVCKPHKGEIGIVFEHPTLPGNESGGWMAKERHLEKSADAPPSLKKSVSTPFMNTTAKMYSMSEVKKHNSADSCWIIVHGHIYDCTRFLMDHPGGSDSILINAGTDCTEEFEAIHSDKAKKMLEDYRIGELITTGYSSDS
T1 sequence (P11035 626-917 partner): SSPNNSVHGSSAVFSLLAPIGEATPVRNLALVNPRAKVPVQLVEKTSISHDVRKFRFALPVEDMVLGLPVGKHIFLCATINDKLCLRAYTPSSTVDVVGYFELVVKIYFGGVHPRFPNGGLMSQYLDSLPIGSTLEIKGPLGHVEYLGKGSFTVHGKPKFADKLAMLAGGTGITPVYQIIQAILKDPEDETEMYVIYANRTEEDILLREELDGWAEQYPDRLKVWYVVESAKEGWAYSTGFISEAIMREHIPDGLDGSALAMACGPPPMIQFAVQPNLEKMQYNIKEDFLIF
Description: NO analyzer, inhibition of nitrite reduction (NO production). It counts as biochemical.

For data set [2], the target named is T2, re-constituted (composite) NIA1 (Arabidopsis thaliana, UniProt P11832).
T2 construct: both from E. coli, IMAC purified; with Nitrate reductase [NADH]
T2 sequence (P11832 1-627): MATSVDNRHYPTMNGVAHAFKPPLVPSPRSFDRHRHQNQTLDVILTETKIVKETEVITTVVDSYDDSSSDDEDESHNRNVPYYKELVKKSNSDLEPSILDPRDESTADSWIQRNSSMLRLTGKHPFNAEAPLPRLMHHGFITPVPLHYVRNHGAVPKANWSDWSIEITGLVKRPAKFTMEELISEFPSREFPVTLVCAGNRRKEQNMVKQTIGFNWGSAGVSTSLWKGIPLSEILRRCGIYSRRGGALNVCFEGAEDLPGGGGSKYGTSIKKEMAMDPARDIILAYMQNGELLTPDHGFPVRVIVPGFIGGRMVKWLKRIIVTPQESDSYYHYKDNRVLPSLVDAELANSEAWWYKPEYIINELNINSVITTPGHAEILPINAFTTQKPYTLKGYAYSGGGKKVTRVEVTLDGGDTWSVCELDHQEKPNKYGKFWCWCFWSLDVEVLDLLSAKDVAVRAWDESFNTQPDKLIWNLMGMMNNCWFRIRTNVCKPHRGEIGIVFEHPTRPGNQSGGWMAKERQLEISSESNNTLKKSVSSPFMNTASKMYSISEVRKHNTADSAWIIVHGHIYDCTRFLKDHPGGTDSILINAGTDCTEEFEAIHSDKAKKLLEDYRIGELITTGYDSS
T2 sequence (P11832 628-917 partner): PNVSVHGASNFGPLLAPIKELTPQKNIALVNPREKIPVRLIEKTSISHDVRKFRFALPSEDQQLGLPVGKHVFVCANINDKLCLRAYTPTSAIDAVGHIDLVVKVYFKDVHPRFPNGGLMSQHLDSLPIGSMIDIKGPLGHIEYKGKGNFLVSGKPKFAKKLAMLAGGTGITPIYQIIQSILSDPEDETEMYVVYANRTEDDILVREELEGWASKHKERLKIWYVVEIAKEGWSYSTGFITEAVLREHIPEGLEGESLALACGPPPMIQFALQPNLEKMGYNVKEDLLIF
The description is as above. It counts as biochemical.

Substrate in data set [3]: O=NO
Put plainly: BV:nitrite steady-state assay, A595. As to conditions: reduced benzyl viologen as electron donor, pH 7.5, 22-25 °C, anaerobic. It counts as biochemical, Arabidopsis thaliana. From the text: BV:nitrite steady-state assay, A595 on NIA1-Mo-heme

For data set [4], the target named is T3, Arabidopsis thaliana NIA1-Mo-heme fragment (residues 1-627) (Arabidopsis thaliana) (UniProt P11832).
T3 sequence: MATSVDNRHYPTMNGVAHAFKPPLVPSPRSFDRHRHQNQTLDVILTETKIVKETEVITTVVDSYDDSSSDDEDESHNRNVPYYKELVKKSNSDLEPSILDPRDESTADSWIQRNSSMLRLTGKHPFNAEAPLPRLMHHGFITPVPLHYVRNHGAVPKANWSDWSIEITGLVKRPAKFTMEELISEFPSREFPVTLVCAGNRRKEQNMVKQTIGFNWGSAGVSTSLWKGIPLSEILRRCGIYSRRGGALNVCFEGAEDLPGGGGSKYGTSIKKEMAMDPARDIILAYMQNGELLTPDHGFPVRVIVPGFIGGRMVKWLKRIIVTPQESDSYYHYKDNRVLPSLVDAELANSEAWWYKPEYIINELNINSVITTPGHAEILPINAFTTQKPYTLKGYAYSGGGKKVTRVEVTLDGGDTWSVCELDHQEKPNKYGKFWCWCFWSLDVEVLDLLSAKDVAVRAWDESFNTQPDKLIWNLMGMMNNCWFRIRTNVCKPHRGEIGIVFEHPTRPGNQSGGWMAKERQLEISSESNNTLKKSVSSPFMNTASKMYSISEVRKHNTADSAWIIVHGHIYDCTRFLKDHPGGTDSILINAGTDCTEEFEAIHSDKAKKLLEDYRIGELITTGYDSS

One may read the IC50 as the midpoint of a concentration-inhibition curve. High values mean weaker potency in that assay, low ones greater potency in that assay. In the case of `O=[N+]([O-])O` [nitrate], the results for the IC50 in data set [1] and in data set [2] were 36 ± 2.7 µM and 12 ± 1.7 µM, respectively.

B1: NIA1-Mo-heme (Arabidopsis thaliana) (protein)
chain: MATSVDNRHYPTMNGVAHAFKPPLVPSPRSFDRHRHQNQTLDVILTETKIVKETEVITTVVDSYDDSSSDDEDESHNRNVPYYKELVKKSNSDLEPSILDPRDESTADSWIQRNSSMLRLTGKHPFNAEAPLPRLMHHGFITPVPLHYVRNHGAVPKANWSDWSIEITGLVKRPAKFTMEELISEFPSREFPVTLVCAGNRRKEQNMVKQTIGFNWGSAGVSTSLWKGIPLSEILRRCGIYSRRGGALNVCFEGAEDLPGGGGSKYGTSIKKEMAMDPARDIILAYMQNGELLTPDHGFPVRVIVPGFIGGRMVKWLKRIIVTPQESDSYYHYKDNRVLPSLVDAELANSEAWWYKPEYIINELNINSVITTPGHAEILPINAFTTQKPYTLKGYAYSGGGKKVTRVEVTLDGGDTWSVCELDHQEKPNKYGKFWCWCFWSLDVEVLDLLSAKDVAVRAWDESFNTQPDKLIWNLMGMMNNCWFRIRTNVCKPHRGEIGIVFEHPTRPGNQSGGWMAKERQLEISSESNNTLKKSVSSPFMNTASKMYSISEVRKHNTADSAWIIVHGHIYDCTRFLKDHPGGTDSILINAGTDCTEEFEAIHSDKAKKLLEDYRIGELITTGYDSS
notes: N-terminal Moco + hinge 1 + heme domain fragment, residues 1-627; pQE80L, E. coli, Ni-NTA (IMAC) and SEC purified
What is called Km is the substrate concentration at which the rate is half of its maximum. In general, kcat refers to the number of substrate molecules converted per active site and unit of time at saturation. In the case of B1, in data set [3], the Michaelis constant (Km) is given as 35.5 ± 2.7 µM and the catalytic constant (kcat) worked out at 19.8 ± 4.8 s⁻¹.

B2: Arabidopsis thaliana NIA1-FAD fragment (residues 628-917) (domain or fragment)
chain: PNVSVHGASNFGPLLAPIKELTPQKNIALVNPREKIPVRLIEKTSISHDVRKFRFALPSEDQQLGLPVGKHVFVCANINDKLCLRAYTPTSAIDAVGHIDLVVKVYFKDVHPRFPNGGLMSQHLDSLPIGSMIDIKGPLGHIEYKGKGNFLVSGKPKFAKKLAMLAGGTGITPIYQIIQSILSDPEDETEMYVVYANRTEDDILVREELEGWASKHKERLKIWYVVEIAKEGWSYSTGFITEAVLREHIPEGLEGESLALACGPPPMIQFALQPNLEKMGYNVKEDLLIF
B2: the apparent kcat of the steady-state NADH:nitrate assay of re-constituted NIA1 (100 nM NIA1-Mo-heme + 5 µM NIA1-FAD, ratio 1:50) in data set [4] is 9.6 s⁻¹.
